The record followed here is PMC5080440.

The target in test [1] is TagRFP-T-CENP-C with the talin rod domain inserted into the middle (internal CENP-C-TR reporter) (Drosophila melanogaster | chicken) (UniProt P54939). Put plainly: quantitative two-colour fluorescence imaging of recruitment to kinetochores in live cells; S2 cells co-expressing VH-EGFP and TagRFP-T-CENP-C-TR; metaphase cells, 0.1% DMSO (bioriented kinetochores, under force); VH-EGFP to TagRFP-T ratio divided by the correction ratio from TagRFP-T-CENP-C-EGFP; 25 °C.

Test [2] deals with TagRFP-T-CENP-C with the talin rod domain at the C terminus (C-terminal CENP-C-TR control reporter) (Drosophila melanogaster | chicken) (UniProt P54939). Put plainly: quantitative two-colour fluorescence imaging of recruitment to kinetochores in live cells; S2 cells co-expressing VH-EGFP and TagRFP-T-CENP-C-TR; 25 uM colchicine (unattached kinetochores, low/no force); VH-EGFP to TagRFP-T ratio divided by the correction ratio from TagRFP-T-CENP-C-EGFP; 25 °C.

In test [3] the target is TagRFP-T-CENP-C with the talin rod domain inserted into the middle (internal CENP-C-TR reporter) (Drosophila melanogaster | chicken) (UniProt P54939). The test is described as above.

B1: vinculin head domain (aa 1-258) fused to EGFP (domain or fragment)
chain: MPVFHTRTIESILEPVAQQISHLVIMHEEGEVDGKAIPDLTAPVSAVQAAVSNLVRVGKETVQTTEDQILKRDMPPAFIKVENACTKLVRAAQMLQADPYSVPARDYLIDGSRGILSGTSDLLLTFDEAEVRKIIRVCKGILEYLTVAEVVETMEDLVTYTKNLGPGMTKMAKMIDERQQELTHQEHRVMLVNSMNTVKELLPVLISAMKIFVTTKNTKSQGIEEALKNRNFTVEKMSAEINEIIRVLQLTSWDEDAW
Regarding B1, in test [1], the stoichiometry N (VH molecules per CENP-C-TR) was determined as 1.3. The stoichiometry N (VH molecules per TR) in test [2] was found to be 0.75. Further, in test [3], the stoichiometry N (VH-EGFP molecules per TR) amounted to 0.9.
